The series deals with the molecule itself. Kind of series: SEC. Background: SEC sorts molecules by how far they enter the pores of the column.

B1: Staphylococcus aureus serine protease-like protein B (SplB), recombinant, catalytically active (enzyme, UniProt Q2FFT0 37-240, looked up)
chain: ENNVTKVKDTNIFPYTGVVAFKSATGFVVGKNTILTNKHVSKNYKVGDRITAHPNSDKGNGGIYSIKKIINYPGKEDVSVIQVEERAIERGPKGFNFNDNVTPFKYAAGAKAGERIKVIGYPHPYKNKYVLYESTGPVMSVEGSSIVYSAHTESGNSGSPVLNSNNELVGIHFASDVKNDDNRNAYGVYFTPEIKKFIAENIDK
Regarding B1, the binding result is listed as “binds”.

B2: Catalytically inactive SplB mutant (S193A), recombinant (enzyme, UniProt Q2FFT0 37-240, looked up)
chain: ENNVTKVKDTNIFPYTGVVAFKSATGFVVGKNTILTNKHVSKNYKVGDRITAHPNSDKGNGGIYSIKKIINYPGKEDVSVIQVEERAIERGPKGFNFNDNVTPFKYAAGAKAGERIKVIGYPHPYKNKYVLYESTGPVMSVEGSSIVYSAHTESGNAGSPVLNSNNELVGIHFASDVKNDDNRNAYGVYFTPEIKKFIAENIDK
For B2, the binding result is “binds”.
